According to PMC10397247:
Like-named read-outs stand apart in the source and are kept apart here.

How the values were obtained:
P6-AA-12HGe-R = molecular target: T1, P6-AA-12HGe-R; assay: two-hybrid library CCmax; conditions: mean of both orientations;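 also: natural log of median RNA to DNA barcode read ratio; higher means stronger binding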
T1 chain: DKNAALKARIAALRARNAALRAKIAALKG

P6-AA-12HGe-H = molecular target: T2, P6-AA-12HGe-H; assay: two-hybrid library CCmax; conditions: mean of both orientations;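 also: natural log of median RNA to DNA barcode read ratio; higher means stronger binding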
T2 chain: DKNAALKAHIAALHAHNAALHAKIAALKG

P6-AA-12HGe-S = molecular target: T3, P6-AA-12HGe-S; assay: two-hybrid library CCmax; conditions: mean of both orientations;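 also: natural log of median RNA to DNA barcode read ratio; higher means stronger binding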
T3 chain: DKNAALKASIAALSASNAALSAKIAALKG

P6-AA-12HGe-Q = molecular target: T4, P6-AA-12HGe-Q; assay: two-hybrid library CCmax; conditions: mean of both orientations;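 also: natural log of median RNA to DNA barcode read ratio; higher means stronger binding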
T4 chain: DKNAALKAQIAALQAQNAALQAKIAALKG

P6-AA-12HGe-A = molecular target: T5, P6-AA-12HGe-A; assay: two-hybrid library CCmax; conditions: mean of both orientations;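 also: natural log of median RNA to DNA barcode read ratio; higher means stronger binding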
T5 chain: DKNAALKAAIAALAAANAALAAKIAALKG

P6-AA-12HGe-T = molecular target: T6, P6-AA-12HGe-T; assay: two-hybrid library CCmax; conditions: mean of both orientations;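 also: natural log of median RNA to DNA barcode read ratio; higher means stronger binding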
T6 chain: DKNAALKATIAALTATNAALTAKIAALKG

P6-AA-12HGe-D = molecular target: T7, P6-AA-12HGe-D; assay: two-hybrid library CCmax
T7 chain: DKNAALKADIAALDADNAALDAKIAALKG

P6-AA-12HGe-M = molecular target: T8, P6-AA-12HGe-M; assay: two-hybrid library CCmax; conditions: mean of both orientations
T8 chain: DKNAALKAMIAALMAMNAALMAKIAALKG

P6-AA-12HGe-W = molecular target: T9, P6-AA-12HGe-W; assay: two-hybrid library CCmax; conditions: mean of both orientations
T9 chain: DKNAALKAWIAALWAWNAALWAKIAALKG

P6-AA-12HGe-K = molecular target: T10, P6-AA-12HGe-K; assay: two-hybrid library CCmax; conditions: mean of both orientations
T10 chain: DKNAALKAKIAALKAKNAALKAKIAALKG

4H3427-bN = molecular target: T11, 4H3427-bN; assay: two-hybrid library CCNG1
T11 chain: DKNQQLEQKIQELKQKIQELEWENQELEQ

4H4073-bN = molecular target: T12, 4H4073-bN; assay: two-hybrid library CCNG1
T12 chain: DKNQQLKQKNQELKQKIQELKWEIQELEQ

4H968-bN = molecular target: T13, 4H968-bN; assay: two-hybrid library CCNG1
T13 chain: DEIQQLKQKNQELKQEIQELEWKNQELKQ

4H3010-bN = molecular target: T14, 4H3010-bN; assay: two-hybrid library CCNG1
T14 chain: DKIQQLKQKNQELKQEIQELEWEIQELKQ

4H780-bN = molecular target: T15, 4H780-bN; assay: two-hybrid library CCNG1
T15 chain: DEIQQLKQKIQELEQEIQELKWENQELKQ

4H3112-bN = molecular target: T16, 4H3112-bN; assay: two-hybrid library CCNG1
T16 chain: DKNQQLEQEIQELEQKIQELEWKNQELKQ

4H953-bN = molecular target: T17, 4H953-bN; assay: two-hybrid library CCNG1
T17 chain: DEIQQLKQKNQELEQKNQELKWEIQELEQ

4H3926-bN = molecular target: T18, 4H3926-bN; assay: two-hybrid library CCNG1
T18 chain: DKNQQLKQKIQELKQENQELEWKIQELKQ

4H575-bN = molecular target: T19, 4H575-bN; assay: two-hybrid library CCNG1
T19 chain: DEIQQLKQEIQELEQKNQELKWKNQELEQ

4H457-bN = molecular target: T20, 4H457-bN; assay: two-hybrid library CCNG1
T20 chain: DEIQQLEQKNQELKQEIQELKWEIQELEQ

4H855-bN = molecular target: T21, 4H855-bN; assay: two-hybrid library CCNG1
T21 chain: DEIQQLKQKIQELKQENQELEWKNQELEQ

4H754-bN = molecular target: T22, 4H754-bN; assay: two-hybrid library CCNG1
T22 chain: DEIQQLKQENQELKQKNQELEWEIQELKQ

4H918-bN = molecular target: T23, 4H918-bN; assay: two-hybrid library CCNG1
T23 chain: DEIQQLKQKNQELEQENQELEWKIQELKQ

4H346-bN = molecular target: T24, 4H346-bN; assay: two-hybrid library CCNG1
T24 chain: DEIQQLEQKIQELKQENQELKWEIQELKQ

4H683-bN = molecular target: T25, 4H683-bN; assay: two-hybrid library CCNG1
T25 chain: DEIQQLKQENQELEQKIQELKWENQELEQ

4H797-bN = molecular target: T26, 4H797-bN; assay: two-hybrid library CCNG1
T26 chain: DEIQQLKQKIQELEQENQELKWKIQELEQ

4H626-bN = molecular target: T27, 4H626-bN; assay: two-hybrid library CCNG1
T27 chain: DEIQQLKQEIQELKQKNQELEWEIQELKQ

4H906-bN = molecular target: T28, 4H906-bN; assay: two-hybrid library CCNG1
T28 chain: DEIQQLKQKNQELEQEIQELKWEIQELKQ

4H591-bN = molecular target: T29, 4H591-bN; assay: two-hybrid library CCNG1
T29 chain: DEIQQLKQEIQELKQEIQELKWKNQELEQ

4H3613-bN = molecular target: T30, 4H3613-bN; assay: two-hybrid library CCNG1
T30 chain: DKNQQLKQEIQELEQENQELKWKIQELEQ

4H3462-bN = molecular target: T31, 4H3462-bN; assay: two-hybrid library CCNG1
T31 chain: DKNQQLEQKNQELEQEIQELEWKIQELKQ

4H3497-bN = molecular target: T32, 4H3497-bN; assay: two-hybrid library CCNG1
T32 chain: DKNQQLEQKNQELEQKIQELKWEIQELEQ

O8-bP = molecular target: T33, O8-bP; assay: two-hybrid library CCNG1
T33 chain: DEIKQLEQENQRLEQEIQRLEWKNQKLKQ

4H3628-bN = molecular target: T34, 4H3628-bN; assay: two-hybrid library CCNG1
T34 chain: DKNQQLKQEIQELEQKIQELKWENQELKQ

Binder | interaction score (P6-AA-12HGe-R) | interaction score (P6-AA-12HGe-H) | interaction score (P6-AA-12HGe-S) | interaction score (P6-AA-12HGe-Q) | interaction score (P6-AA-12HGe-A) | interaction score (P6-AA-12HGe-T) | interaction score (P6-AA-12HGe-D; mean of both orientations) | interaction score (P6-AA-12HGe-M) | interaction score (P6-AA-12HGe-W) | interaction score (P6-AA-12HGe-K) | other results
DENAALEAWIAALWAWNAALWAEIAALEG [P5-AA-12HGe-W] | -1.34 | -1.46 | -0.198 | 0.162 | -0.131 | -0.564 | -1.67 | 0.011 | -1.05 | -2.03 | 
DENAALEAEIAALEAENAALEAEIAALEG [P5-AA-12HGe-E] | 1.58 | 2.11 | -0.0947 | 2.02 | 1.23 | 0.892 | -1.51 | 0.542 | -0.981 | 1.8 | 
DENAALEAQIAALQAQNAALQAEIAALEG [P5-AA-12HGe-Q] | 1.09 | -0.211 | 0.0975 | 1.76 | 1.19 | 1.2 | -1.9 | 1.12 | -1.08 | 1.68 | 
DENAALEAMIAALMAMNAALMAEIAALEG [P5-AA-12HGe-M] | 0.594 | -0.103 | -0.47 | 2.16 | 1.15 | 1.54 |  | 0.995 | -0.0463 | 1.12 | interaction score (P6-AA-12HGe-D): -1.48
DKIQQLKQKNQELKQEIQELEWEIQELKQ [4H3010-bN] |  |  |  |  |  |  |  |  |  |  | interaction score (4H3427-bN): -0.668; interaction score (4H4073-bN): -1.32; interaction score (4H968-bN): -1.13; interaction score (4H3010-bN): -0.256; interaction score (4H780-bN): -0.214; interaction score (4H3112-bN): -1.33; interaction score (4H953-bN): -1.77; interaction score (4H3926-bN): -0.546; interaction score (4H575-bN): -1.47; interaction score (4H457-bN): -0.409; interaction score (4H855-bN): -0.686; interaction score (4H754-bN): -1.56; interaction score (4H918-bN): -0.536; interaction score (4H346-bN): -1.97; interaction score (4H683-bN): 1.02; interaction score (4H797-bN): -0.873
DKNQQLEQKNQELEQEIQELEWKIQELKQ [4H3462-bN] |  |  |  |  |  |  |  |  |  |  | interaction score (4H626-bN): 0.696; interaction score (4H3926-bN): -0.216; interaction score (4H906-bN): -0.328; interaction score (4H591-bN): -0.826; interaction score (4H3613-bN): -0.0373; interaction score (4H3462-bN): 0.127; interaction score (4H3497-bN): 0.781; interaction score (O8-bP): -2.6; interaction score (4H3628-bN): 0.522
DENAALEAHIAALHAHNAALHAEIAALEG [P5-AA-12HGe-H] | -1.38 | -1.62 | -2 | -0.057 | -1.29 | -1.15 | -1.79 | -1.41 | -2.54 | -1.26 | 
DENAALEATIAALTATNAALTAEIAALEG [P5-AA-12HGe-T] | 0.245 | -1.26 | -1.32 | 1.22 | -0.0467 | -0.438 | -1.71 | -0.283 | -1.07 | 0.446 | 
DENAALEAAIAALAAANAALAAEIAALEG [P5-AA-12HGe-A] | 0.304 | -0.816 | -1.02 | 1.38 | -0.0358 | -0.125 | -1.87 | 0.58 | -0.644 | 0.623 | 
DENAALEAYIAALYAYNAALYAEIAALEG [P5-AA-12HGe-Y] | -0.752 | -0.445 | -1.51 | 0.323 | -0.307 | -0.218 | -1.93 | 0.0241 | -0.852 | -0.203 | 
DENAALEADIAALDADNAALDAEIAALEG [P5-AA-12HGe-D] | -0.833 | -2.35 | -2.03 | -1.56 | -1.85 | -1.98 | -1.85 | -2.09 | -1.67 | -0.581 | 
DENAALEASIAALSASNAALSAEIAALEG [P5-AA-12HGe-S] | -0.734 | -1.52 | -2.05 | -0.404 | -1.21 | -1.05 | -1.45 | -1.66 | -1.53 | -0.261 | 
DENAALEARIAALRARNAALRAEIAALEG [P5-AA-12HGe-R] | -1.36 | -1.35 | -0.593 | 1.15 | 0.13 | -0.204 | -0.685 | -0.376 | -1.7 | -0.748 | 
